{
  "source": "patent US10370436B2",
  "about": "“Anti-pseudomonas Psl binding molecules and uses thereof” (priority 2011, dated 2019)",
  "molecules": {"B1": {"name": "WapR-004: anti-Psl antibody, VH SEQ ID NO: 11 and VL SEQ ID NO: 12 (antibody, V domains shown)", "VH": "EVQLLESGPGLVKPSETLSLTCNVAGGSISPYYWTWIRQPPGKGLELIGYIHSSGYTDYNPSLKSRVTISGDTSKKQFSLHVSSVTAADTAVYFCARGDWDLLHALDIWGQGTLVTVSS", "VL": "EIVLTQSPSSLSTSVGDRVTITCRASQSIRSHLNWYQQKPGKAPKLLIYGASNLQSGVPSRFSGSGSGTDFTLTISSLQPEDFATYYCQQSYSFPLTFGGGTKLEIK", "modifications": "WapR-004 VH; WapR-004 & WarR-004RAD VL"}},
  "tested_on": "P. aeruginosa strains PAO1, 33356, 6294, 6077",
  "test": "P. aeruginosa acute pneumonia model, survival",
  "type": "in vivo, BALB/c mice",
  "settings": "strain 6077 (O11) 8×10^5 or 6×10^5 CFU; 5 and 1 mg/kg; FIGS. 6E, 6F",
  "experimental": "FIG. 6 (A-G): Survival rates for animals treated with anti-Psl monoclonal antibodies Cam-003 or WapR-004 in a P. aeruginosa acute pneumonia model. (A-D) Animals were treated with Cam-003 at 45, 15, and 5 mg/kg and R347 at 45 mg/kg or PBS 24 hours prior to intranasal infection with (A) PAO1 (1.6×10^7 CFU), (B) 33356 (3×10^7 CFU), (C) 6294 (7×10^6 CFU), (D) 6077 (1×10^6 CFU). (E-F) Animals were treated with WapR-004 at 5 and 1 mg/kg as indicated followed by infection with 6077 at (E) (8×10^5 CFU), or (F) (6×10^5 CFU). Animals were carefully monitored for survival up to 72 hours (A-D) or for 120 hours (E-F). (G) Animals were treated with Cam-003 at 15 mg/kg or 5 mg/kg, or R347 at 15 mg/kg 24 hours prior to intranasal infection with PAO1 (4.4×10^7 CFU), and Cam-003 at 15 mg/kg 24 hours prior to intranasal infection with PAO1ΔpslA (3×10^7 CFU). In all experiments, PBS and R347 served as negative controls. Results are represented as Kaplan-Meier survival curves; differences in survival were calculated by the Log-rank test for Cam-003 vs. R347. (A) Cam-003 (45 mg/kg—P<0.0001; 15 mg/kg—P=0.0003; 5 mg/kg—P=0.0033). (B) Cam-003 (45 mg/kg—P=0.0012; 15 mg/kg—P=0.0012; 5 mg/kg—P=0.0373). (C) Cam-003 (45 mg/kg—P=0.0007; 15 mg/kg—P=0.0019; 5 mg/kg—P=0.0212). (D) Cam-003 (45 mg/kg—P<0.0001; 15 mg/kg—P<0.0001; 5 mg/kg—P=0.0001). Results are representative of at least two independent experiments. […]",
  "data": [
    {"molecule": "B1", "values": [
      {"measurement": "survival", "value": "significant concentration-dependent survival"}
    ]}
  ]
}
